Data reported in publication PMC10075959 (Science Advances, 2023).

B1: NLRS:G215C peptide (peptide)
peptide: MAGNGCDAALALLLLDRLNQLESKMSGKGQQQQGQTV
B2: NLRS:G215S peptide (peptide)
peptide: MAGNGSDAALALLLLDRLNQLESKMSGKGQQQQGQTV
B3: NLRS:G215C peptide (peptide)
chain: MAGNGCDAALALLLLDRLNQLESKMSGKGQQQQGQTV
B4: NLRS:L222M/G215C double mutant peptide (peptide)
chain: MAGNGCDAALALMLLDRLNQLESKMSGKGQQQQGQTV
B5: NLRS:L222M peptide (peptide)
chain: MAGNGGDAALALMLLDRLNQLESKMSGKGQQQQGQTV
B6: NLRS:G215S peptide (peptide)
chain: MAGNGSDAALALLLLDRLNQLESKMSGKGQQQQGQTV

Biological target: the molecule itself
Assay: AUC

| Protein | binding result |
| --- | --- |
| B1 | binds |
| B2 | binds |

Biological target: the molecule itself
Assay: AUC
Remark: another data set of the same source

| Protein | binding result |
| --- | --- |
| B3 | binds |
| B4 | binds |
| B5 | binds |
| B6 | binds |
